Measured values published in the supplement of paper PMC9876800.

Test system: peptide library, one residue held at a place counted from the S/T acceptor
Test: relative phosphorylation of the sub-library (ratio to the mean residue at this position); higher = residue favoured
Conditions: human
How it was run: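 Spots on streptavidin membranes were phosphorimaged and quantified by densitometry to measure phosphorylation of biotinylated degenerate peptide sub-libraries by purified recombinant kinases, human or orthologue constructs. The reactions ran in 384-well plates for 90 min under kinase-specific conditions, with peptides at 50 μM and 50 μM ATP spiked with γ-32P-ATP. Relative sub-library phosphorylation is the ratio to the mean residue at that position.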

Sequence of RPS6KA2, construct: Full length (Q15349 whole entry, looked up): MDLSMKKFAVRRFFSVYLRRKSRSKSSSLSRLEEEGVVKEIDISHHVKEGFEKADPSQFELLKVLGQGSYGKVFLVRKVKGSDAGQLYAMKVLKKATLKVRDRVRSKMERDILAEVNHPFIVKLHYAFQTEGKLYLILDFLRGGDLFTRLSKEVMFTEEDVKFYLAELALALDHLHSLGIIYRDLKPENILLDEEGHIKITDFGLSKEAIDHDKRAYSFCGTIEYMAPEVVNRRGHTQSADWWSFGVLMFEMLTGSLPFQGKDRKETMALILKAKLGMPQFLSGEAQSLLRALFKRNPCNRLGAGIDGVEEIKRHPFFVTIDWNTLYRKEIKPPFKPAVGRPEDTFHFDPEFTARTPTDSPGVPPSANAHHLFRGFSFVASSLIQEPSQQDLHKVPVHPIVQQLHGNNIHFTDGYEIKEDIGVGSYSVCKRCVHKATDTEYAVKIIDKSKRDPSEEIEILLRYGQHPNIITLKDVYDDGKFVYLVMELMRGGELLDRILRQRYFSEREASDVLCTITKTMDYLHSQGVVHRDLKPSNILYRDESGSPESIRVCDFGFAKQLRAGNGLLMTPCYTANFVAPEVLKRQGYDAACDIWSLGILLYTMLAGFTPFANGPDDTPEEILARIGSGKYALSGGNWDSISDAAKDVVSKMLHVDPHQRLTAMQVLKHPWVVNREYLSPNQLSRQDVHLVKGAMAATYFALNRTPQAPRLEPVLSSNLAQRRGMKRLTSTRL
Sequence of CAMK1D, construct: Full length (Q8IU85 whole entry, looked up): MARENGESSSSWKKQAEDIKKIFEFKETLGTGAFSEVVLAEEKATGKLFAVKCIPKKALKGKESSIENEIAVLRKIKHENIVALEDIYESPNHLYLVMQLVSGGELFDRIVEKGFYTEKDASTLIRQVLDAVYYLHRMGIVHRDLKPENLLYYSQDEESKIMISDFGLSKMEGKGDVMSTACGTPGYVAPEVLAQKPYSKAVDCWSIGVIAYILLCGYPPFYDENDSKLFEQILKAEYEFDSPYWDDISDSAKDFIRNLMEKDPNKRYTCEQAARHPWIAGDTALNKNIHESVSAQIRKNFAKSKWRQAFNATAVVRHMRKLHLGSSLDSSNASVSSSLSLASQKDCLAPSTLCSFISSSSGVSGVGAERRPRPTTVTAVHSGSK
Sequence of SNRK, construct: aa1-505 (Q9NRH2 1-505, looked up): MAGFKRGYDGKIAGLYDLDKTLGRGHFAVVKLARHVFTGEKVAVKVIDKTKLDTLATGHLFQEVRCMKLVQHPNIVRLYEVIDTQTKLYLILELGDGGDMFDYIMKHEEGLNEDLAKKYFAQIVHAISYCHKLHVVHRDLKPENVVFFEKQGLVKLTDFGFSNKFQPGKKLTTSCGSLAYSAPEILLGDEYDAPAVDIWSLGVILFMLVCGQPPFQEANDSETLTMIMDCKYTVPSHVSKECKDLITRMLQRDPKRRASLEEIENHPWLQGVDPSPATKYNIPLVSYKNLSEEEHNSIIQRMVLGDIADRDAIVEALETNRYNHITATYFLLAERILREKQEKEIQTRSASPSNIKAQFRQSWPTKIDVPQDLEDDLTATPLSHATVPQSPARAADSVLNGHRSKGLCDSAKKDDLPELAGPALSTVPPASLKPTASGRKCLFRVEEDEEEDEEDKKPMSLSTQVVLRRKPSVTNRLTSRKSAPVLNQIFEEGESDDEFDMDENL
Sequence of PRKACG, construct: Full length (P22612 whole entry, looked up): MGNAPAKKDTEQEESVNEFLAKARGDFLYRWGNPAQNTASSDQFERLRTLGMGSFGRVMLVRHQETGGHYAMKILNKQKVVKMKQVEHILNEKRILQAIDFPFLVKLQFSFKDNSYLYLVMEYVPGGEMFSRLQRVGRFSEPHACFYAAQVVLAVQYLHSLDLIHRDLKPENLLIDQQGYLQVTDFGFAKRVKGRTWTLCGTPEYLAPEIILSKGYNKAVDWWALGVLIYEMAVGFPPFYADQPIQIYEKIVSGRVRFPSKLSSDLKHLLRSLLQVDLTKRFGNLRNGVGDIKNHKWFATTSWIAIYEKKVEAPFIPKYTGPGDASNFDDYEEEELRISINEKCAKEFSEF

RPS6KA2, construct: Full length (from UniProt Q15349)
relative phosphorylation
Conditions | at +1 | at +2 | at +3 | at +4 | at -1 | at -2 | at -3 | at -4 | at -5
A fixed | 0.795 | 1.22 | 1.14 | 1.18 | 0.925 | 0.766 | 0.741 | 1.41 | 1.13
D fixed | 0.457 | 0.669 | 0.976 | 0.77 | 0.569 | 0.763 | 0.455 | 0.572 | 0.435
E fixed | 0.806 | 0.601 | 0.792 | 0.661 | 0.505 | 0.589 | 0.562 | 0.639 | 0.417
F fixed | 1.32 | 0.708 | 0.99 | 0.844 | 0.752 | 0.54 | 0.373 | 0.851 | 0.915
G fixed | 0.658 | 1.24 | 1.21 | 1.22 | 1.21 | 0.914 | 0.583 | 1.12 | 1.1
H fixed | 1.31 | 1.66 | 1.19 | 1.32 | 1.18 | 1.26 | 0.672 | 1.1 | 1.11
I fixed | 1.22 | 0.994 | 0.855 | 0.88 | 0.384 | 0.502 | 0.308 | 0.657 | 0.72
K fixed | 0.972 | 1.04 | 1.03 | 1.22 | 1.5 | 2.21 | 1.47 | 1.58 | 2
L fixed | 0.925 | 0.616 | 1.04 | 0.839 | 0.916 | 1.05 | 0.311 | 0.801 | 0.862
M fixed | 1.09 | 0.742 | 0.912 | 0.887 | 1.12 | 0.761 | 0.449 | 0.916 | 0.715
N fixed | 0.769 | 0.781 | 0.706 | 0.68 | 1.16 | 0.697 | 0.434 | 0.743 | 0.755
P fixed | 0.338 | 0.794 | 1.04 | 1.27 | 1.58 | 0.467 | 0.632 | 0.984 | 0.865
Q fixed | 0.925 | 0.566 | 0.717 | 0.916 | 0.861 | 0.879 | 0.603 | 0.956 | 0.702
R fixed | 0.998 | 1.82 | 1.09 | 0.886 | 1.6 | 4.34 | 8.11 | 2.03 | 3.49
V fixed | 1.75 | 1.11 | 0.92 | 0.819 | 0.683 | 0.35 | 0.365 | 0.786 | 0.713
W fixed | 1.05 | 0.973 | 1.17 | 1.44 | 0.793 | 0.409 | 0.443 | 0.954 | 0.171
Y fixed | 1.61 | 1.47 | 1.23 | 1.16 | 1.26 | 0.503 | 0.49 | 0.894 | 0.903
pThr fixed | 1 | 0.781 | 1.22 | 1.03 | 0.307 | 0.308 | 0.269 | 0.637 | 0.391
pTyr fixed | 1.55 | 1.05 | 1.25 | 0.999 | 0.657 | 0.368 | 0.555 | 0.636 | 0.526

CAMK1D, construct: Full length (from UniProt Q8IU85)
relative phosphorylation
Conditions | at +1 | at +2 | at +3 | at +4 | at -1 | at -2 | at -3 | at -4 | at -5
A fixed | 0.771 | 0.831 | 0.729 | 0.681 | 0.791 | 0.914 | 0.52 | 0.782 | 0.533
D fixed | 0.658 | 1.06 | 1.35 | 0.996 | 0.975 | 0.373 | 0.154 | 0.438 | 0.269
E fixed | 0.811 | 1.22 | 1.15 | 0.974 | 0.646 | 0.504 | 0.22 | 0.784 | 0.252
F fixed | 1.75 | 1.14 | 1.17 | 1.39 | 0.597 | 0.446 | 0.631 | 0.724 | 1.38
G fixed | 0.761 | 0.625 | 0.956 | 0.822 | 0.793 | 0.772 | 0.287 | 0.698 | 0.564
H fixed | 1.03 | 1.47 | 1.34 | 0.936 | 1.35 | 0.962 | 0.964 | 0.955 | 0.787
I fixed | 0.665 | 0.881 | 0.722 | 1.35 | 0.475 | 0.37 | 0.132 | 0.815 | 1.31
K fixed | 1.26 | 0.591 | 0.717 | 0.675 | 1.9 | 1.95 | 2.7 | 2.58 | 0.999
L fixed | 0.744 | 1.06 | 0.892 | 1.39 | 0.759 | 0.526 | 0.164 | 0.886 | 2.33
M fixed | 1.01 | 0.846 | 0.854 | 1.51 | 0.824 | 1.09 | 0.238 | 0.995 | 1.35
N fixed | 1.29 | 1.3 | 1.44 | 1.01 | 1.85 | 0.965 | 0.414 | 0.923 | 0.594
P fixed | 0.237 | 0.753 | 0.786 | 1.12 | 1.41 | 0.311 | 0.389 | 0.63 | 1.19
Q fixed | 1.68 | 1.14 | 1.07 | 0.969 | 1.28 | 2.08 | 0.63 | 1.06 | 0.905
R fixed | 1.62 | 0.7 | 0.785 | 0.616 | 1.5 | 3.51 | 8.75 | 2.35 | 1.85
V fixed | 0.747 | 0.736 | 0.627 | 0.746 | 0.523 | 0.448 | 0.153 | 0.883 | 0.752
W fixed | 0.971 | 1.3 | 1.34 | 0.973 | 0.486 | 1.13 | 0.395 | 0.706 | 0.977
Y fixed | 0.988 | 1.35 | 1.07 | 0.833 | 0.834 | 0.656 | 0.263 | 0.789 | 0.961
pThr fixed | 0.967 | 0.874 | 0.756 | 1.2 | 0.312 | 0.312 | 0.221 | 0.486 | 0.375
pTyr fixed | 0.844 | 2.75 | 1.25 | 0.949 | 0.739 | 0.291 | 0.205 | 0.431 | 0.739

SNRK, construct: aa1-505 (from UniProt Q9NRH2)
relative phosphorylation
Conditions | at +1 | at +2 | at +3 | at +4 | at -1 | at -2 | at -3 | at -4 | at -5
A fixed | 0.817 | 0.313 | 0.573 | 0.725 | 0.876 | 1.27 | 0.886 | 1.12 | 1.07
D fixed | 0.421 | 0.215 | 0.614 | 0.532 | 0.73 | 0.301 | 0.279 | 0.572 | 0.568
E fixed | 0.544 | 0.156 | 0.303 | 0.474 | 0.899 | 0.344 | 0.267 | 0.65 | 0.514
F fixed | 1.81 | 3.56 | 2.34 | 1.08 | 0.944 | 1.31 | 0.898 | 0.944 | 1.27
G fixed | 0.424 | 0.196 | 0.608 | 0.721 | 0.813 | 0.721 | 0.617 | 1.06 | 0.957
H fixed | 0.863 | 0.998 | 1.16 | 0.969 | 1.1 | 1.47 | 1.04 | 1.15 | 1.1
I fixed | 0.829 | 0.912 | 0.61 | 1.16 | 0.811 | 0.587 | 0.631 | 0.861 | 0.921
K fixed | 1.09 | 0.431 | 0.691 | 1 | 1.06 | 1.12 | 1.99 | 1.42 | 1.31
L fixed | 1.05 | 1.36 | 0.88 | 1.78 | 1.3 | 0.616 | 0.9 | 0.94 | 0.815
M fixed | 1.4 | 1.34 | 0.934 | 1.18 | 1.31 | 0.91 | 0.979 | 1.03 | 0.937
N fixed | 0.916 | 0.5 | 1.11 | 0.965 | 0.864 | 1.11 | 0.654 | 0.824 | 0.883
P fixed | 0.171 | 0.276 | 0.354 | 1.02 | 0.823 | 0.426 | 0.613 | 0.748 | 0.807
Q fixed | 1.35 | 0.567 | 0.661 | 1.16 | 1.08 | 1.14 | 0.908 | 0.942 | 0.89
R fixed | 1.63 | 0.865 | 1.1 | 1.06 | 1.45 | 2.44 | 4.04 | 1.5 | 1.69
V fixed | 0.936 | 0.585 | 0.531 | 0.924 | 0.93 | 0.78 | 0.498 | 0.911 | 0.996
W fixed | 1.27 | 2.4 | 2.19 | 1.29 | 0.964 | 1.11 | 0.952 | 1.18 | 1.23
Y fixed | 1.48 | 2.32 | 2.35 | 0.952 | 1.05 | 1.34 | 0.85 | 1.15 | 1.05
pThr fixed | 0.702 | 0.42 | 0.371 | 0.477 | 0.913 | 0.613 | 0.526 | 0.7 | 0.726
pTyr fixed | 0.777 | 0.522 | 0.548 | 0.425 | 1.03 | 0.512 | 0.522 | 0.735 | 0.73

PRKACG, construct: Full length (from UniProt P22612)
relative phosphorylation
Conditions | at +1 | at +2 | at +3 | at +4 | at -1 | at -2 | at -3 | at -4 | at -5
A fixed | 0.696 | 1.22 | 0.896 | 0.974 | 0.795 | 0.472 | 0.682 | 0.944 | 1.09
D fixed | 0.44 | 0.969 | 0.917 | 0.885 | 0.473 | 0.197 | 0.322 | 0.595 | 0.569
E fixed | 0.469 | 0.676 | 0.951 | 0.985 | 0.452 | 0.215 | 0.344 | 0.665 | 0.577
F fixed | 1.58 | 1.13 | 1.06 | 0.761 | 0.709 | 0.578 | 0.441 | 0.653 | 0.754
G fixed | 0.804 | 1.08 | 1.26 | 1.17 | 1.21 | 0.565 | 0.846 | 1.09 | 1.09
H fixed | 1.05 | 1.45 | 1.39 | 1.14 | 1.11 | 1.08 | 1.35 | 1.3 | 1.42
I fixed | 1.57 | 0.902 | 0.819 | 1.16 | 0.343 | 0.227 | 0.289 | 0.564 | 0.63
K fixed | 1.08 | 0.812 | 1.08 | 0.978 | 2.41 | 4.09 | 2.19 | 1.85 | 1.97
L fixed | 1.32 | 0.961 | 0.87 | 0.866 | 0.746 | 0.324 | 0.297 | 0.582 | 0.627
M fixed | 1.51 | 0.926 | 0.805 | 0.879 | 0.959 | 0.414 | 0.49 | 0.873 | 0.713
N fixed | 0.851 | 0.942 | 0.921 | 1.04 | 1.15 | 0.689 | 0.776 | 1.01 | 0.965
P fixed | 0.295 | 0.941 | 1.05 | 1.28 | 1.16 | 0.445 | 1.03 | 1.06 | 0.86
Q fixed | 1.05 | 0.975 | 0.913 | 0.937 | 1.1 | 0.532 | 0.789 | 1.04 | 0.91
R fixed | 1.18 | 0.87 | 1.11 | 0.886 | 1.97 | 6.02 | 5.51 | 2.44 | 2.36
V fixed | 1.18 | 1.02 | 0.871 | 0.991 | 0.563 | 0.217 | 0.315 | 0.678 | 0.777
W fixed | 0.963 | 0.99 | 1.04 | 1.1 | 0.768 | 0.462 | 0.615 | 0.821 | 0.856
Y fixed | 0.969 | 1.14 | 1.05 | 0.979 | 1.09 | 0.478 | 0.716 | 0.847 | 0.824
pThr fixed | 0.817 | 0.71 | 0.919 | 1.52 | 0.455 | 0.542 | 0.792 | 0.954 | 0.769
pTyr fixed | 0.939 | 1.03 | 1.26 | 1.29 | 0.59 | 0.455 | 0.614 | 0.655 | 0.751
